Assay [1] deals with T1, human TNFα (human, UniProt P01375). Description: SPR. On the technique in general: In SPR one partner is held on a chip, and binding of the other changes the refractive index at the surface.
Assay [2] concerns the target T1, human TNFα. Description: other, equilibrium analysis.
For assay [3], the target named is T1, human TNFα. The assay is described as follows: SPR. The source holds these as a separate data set.

T1 sequence (P01375 77-233): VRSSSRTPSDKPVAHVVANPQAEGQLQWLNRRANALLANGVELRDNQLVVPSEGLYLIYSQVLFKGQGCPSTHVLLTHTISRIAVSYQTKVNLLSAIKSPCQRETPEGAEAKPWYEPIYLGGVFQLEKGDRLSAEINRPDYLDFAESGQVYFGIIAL

B1: 2SD4 scFv (antibody, V domains shown)
VH: QVQLVESGGGLVQPGRSLRLSCAASGFTFDDYAMHWVRQAPGKGLDWVSAITWNSGHIDYADSVEGRFAVSRDNAKNALYLQMNSLRPEDTAVYYCTKASYLSTSSSLDNWGQGTLVTVSS
VL: DIQMTQSPSSLSASIGDRVTITCRASQGIRNYLAWYQQKPGKAPKLLIYAASTLQSGVPSRFSGSGSGTDFTLTISSLQPEDVATYYCQKYNSAPYAFGQGTKVEIK
B1: in the assay with human TNFα [1], the koff (usually the rate constant with which the complex falls apart) stood at 0.0137 s⁻¹.

B2: 2SD4 IgG4 (antibody, V domains shown)
VH: B1 VH
VL: B1 VL
For the molecule B2, the Kd (commonly a measure of binding affinity in units of concentration) is 0.48 nM with human TNFα [2] and 20 nM with human TNFα [3].

(Values after US20120219564 (published 2012).)
